Reference: publication PMC5811216, “Cleavage activates Dispatched for Sonic Hedgehog ligand release” (eLife, 2018)
Positions count from the first letter of the chain named. Names and notes keep the numbering of the source.

B1: DispHA, wild-type murine Dispatched 1 with a carboxyl-terminal HA tag (natural protein, mouse, UniProt Q3TDN0 1-1521, looked up)
chain: MAVISGSDSVLLSNGSISTSTSNPSPLSPSDGDLPAQHLGPRETPRTKASPNGCLQLNGTVKSSFLPLDNQRTPQTPTQCCHPCPYHHPVSSHSNHQECHPEAGLAASPALASCRMQPHSEYSASLCPNHSPVYQAAHCLQPSPSFCLHHPWPDHFQHQPVRQHLTIIRPSRPFKFPRSYAALLADWPVVVLGMCTLLIVVCALVGVLVPELPDFSDPLLGFEPRGTTIGQRLVTWNNMMRNTGYKATLANYPYKYAEEQARSHRDDRWSDDHHERERREVDWNFQKDSFFCDVPSDGYSRVVFASAGGETLWNLPAIKSMCDVDNSRIRSHPQFSDLCQRTTAVSCCPSWTLGNYIAILNNRSSCQKIVERDVSHTLKLLRTCAKHYQNGTLGPDCWDKAARRKDQLKCTNVPRKCTKYNAVYQILHYLVDKDFMTPKTADYAVPALKYSMLFSPTEKGESMMNIYLDNFENWNSSDGITTVTGIEFGIKHSLFQDYLLMDTVYPAIAIAIVLLIMCVYTKSMFITLMTMFAIISSLIVSYFLYRVVFNFEFFPFMNLTALIILVGIGADDAFVLCDVWNYTKFDKPRAETSEAVSVTLQHAALSMFVTSFTTAAAFYANYVSNITAIRCFGVYAGTAILVNYVLMVTWLPAVIVLHERYLLNIFTCFRKPQPQAYDKSCWAVLCQKCRRVLFAVSEASRIFFEKVLPCIVIKFRYLWLIWFLALTVGGAYIVCVNPKMKLPSLELSEFQVFRSSHPFERYDAEFKKLFMFERVHHGEELHMPITVIWGVSPEDSGDPLNPKSKGELTLDSTFNIASPASQAWILHFCQKLRNQTFFHQTEQQDFTSCFIETFKQWMENQDCDEPALYPCCSHCSFPYKQEVFELCIKKAIMELDRSTGYHLNNKTPGPRFDINDTIRAVVLEFQSTFLFTLAYEKMQQFYKEVDSWISHELSSAPEGLSRGWFVSNLEFYDLQDSLSDGTLIAMGLSVAVAFSVMLLTTWNIIISLYAIVSIAGTIFVTVGSLVLLGWELNVLESVTISVAVGLSVDFAVHYGVAYRLAPDPDREGKVIFSLSRMGSAIAMAALTTFVAGAMMMPSTVLAYTQLGTFMMLVMCVSWAFATFFFQCLCRCLGPQGTCGQIPFPTKLQCSPFSHTLSARPGDRGPSKTHAASAYSVDARGQKSQLEHEFYELQPLASHSCTSSEKTTYEEPHTCSEFFNGQAKNLRMPVPAAYSSELTKSPSSEPGSALLQSCLEQDTVCHFSLNPRCNCRDAYTHLQYGLPEIHCQQMGDSLCHKCASTAGGFVQIQSSVAPLKASHQAAEGLLHPAQHMLPPGMQNSRPRNFFLHSVQHFQAQENLGRTSTHSTDERLPRTAELSPPPSDSRSTESFQRACCHPENNQRRLCKSRDPGDTEGSGGTKSKVSGLPNQTDKEEKQVEPSLLQTDETVNSEHLNHNESNFTFSHLPGEAGCRSCPNSPQSCRSIMRSKCGTEDCQTPNLEANVPAVPTHSDLSGESLLIKTL
notes: Dispatched 1 (Disp), mouse; Disp1 cDNA from RIKEN introduced into Not1-Xba1 sites of pCDNA3; The lysate holds both Disp175 and the cleaved Disp145; On the native gel there was a ~480 kDa fraction (trimer) and ~750 kDa fractions; also called pCDNA3 Dispatched WT HA; pCDNA-DispHA; source: NIH3T3, transfected, in lysate (1% DDM); not shown: HA, C-terminal, kept
B2: DispCSHA, cleavage site mutant (R279A, E280A) of murine Dispatched 1 with a carboxyl-terminal HA tag (natural protein, mouse, UniProt Q3TDN0 1-1521, looked up)
chain: B1 chain with R279A, E280A
notes: Dispatched 1 (Disp), mouse; Disp1 cDNA from RIKEN in pCDNA3; convertase motif disrupted by R279A, E280A; also called DispHA-CS; pCDNA-DispCSHA; source: NIH3T3, transfected, in lysate (1% DDM); not shown: HA, C-terminal, kept

Biological target: the molecule itself
Assay: native gel or EMSA; NIH3T3 lysates in NativePAGE sample buffer with 1% DDM, Benzonase treated; 4-20% NativePAGE Bis-Tris gel; anti-HA western blot

Protein | stoichiometry N
B1 | 3
B2 | 3
